One block for each substance: values may come before it.
Tests used:
[1] = target: 70S ribosome on biotinylated mRNA with the UAA stop codon in the A site (no release factor bound) (E. coli) (UniProt P0AG67); assay: single-molecule fluorescence in zero-mode waveguides (factor occupancy with intersubunit FRET); pre-elongated immobilised 70S with the stop codon in the A site; 75 nM Cy5-RF3, 20 nM Cy5.5-RF1, 4 mM GDPCP, polymix buffer, 20°C, no RRF or EF-G
[2] = target: post-termination RF1-70S complex (Cy5.5-RF1 bound to the non-rotated 70S ribosome) (not stated | E. coli) (UniProt P0A7I0); assay: as above
[3] = target: 70S ribosome on biotinylated mRNA with the UAA stop codon in the A site (no release factor bound) (E. coli) (UniProt P0AG67); assay: single-molecule fluorescence in zero-mode waveguides (factor occupancy with intersubunit FRET); ribosome immobilised through biotinylated mRNA; Cy5.5-RF1 and Cy5-RF3 tracked together, 4 mM GTP, Tris-based polymix buffer pH 7.5, 20°C
[4] = target: post-termination RF1-70S complex (Cy5.5-RF1 bound to the non-rotated 70S ribosome) (not stated | E. coli) (UniProt P0A7I0); assay: as above
[5] = target: 70S ribosome on biotinylated mRNA with the UAA stop codon in the A site (no release factor bound) (E. coli) (UniProt P0AG67); assay: single-molecule fluorescence in zero-mode waveguides (factor occupancy with intersubunit FRET); as a4 (MF-UAA mRNA, Cy5.5-RF1, Cy5-RF3, GTP) but at 12°C
[6] = target: post-termination RF1-70S complex (Cy5.5-RF1 bound to the non-rotated 70S ribosome) (not stated | E. coli) (UniProt P0A7I0); assay: single-molecule fluorescence in zero-mode waveguides (factor occupancy with intersubunit FRET); pre-elongated immobilised 70S with the stop codon in the A site; 75 nM Cy5-RF3, 20 nM Cy5.5-RF1, 4 mM GDP, polymix buffer, 20°C
[7] = target: post-termination RF1-70S complex (Cy5.5-RF1 bound to the non-rotated 70S ribosome) (not stated | E. coli) (UniProt P0A7I0); assay: single-molecule fluorescence in zero-mode waveguides (factor occupancy with intersubunit FRET); Cy5-RF3 occupancy on the Cy5.5-RF1-bound non-rotated ribosome with 50% GDP (1:1 ratio of GTP:GDP); triple exponential fit
[8] = target: 70S ribosome with bound wild-type (dark) RF3, rotated post-termination state (E. coli MG1655 K12 | E. coli) (UniProt P0A7I4); assay: single-molecule fluorescence in zero-mode waveguides (factor occupancy with intersubunit FRET); ribosome immobilised through biotinylated MF-UAA mRNA on Neutravidin; Cy5.5-RF1 or Cy5.5-RF2 with 0-200 nM dark RF3, RRF, EF-G, 4 mM GTP; Tris-based polymix buffer pH 7.5; 20°C
[9] = target: 70S ribosome on biotinylated mRNA with the UAA stop codon in the A site (no release factor bound) (E. coli) (UniProt P0AG67); assay: as above
[10] = target: 70S ribosome with bound wild-type (dark) RF3, rotated post-termination state (E. coli MG1655 K12 | E. coli) (UniProt P0A7I4); assay: single-molecule fluorescence in zero-mode waveguides (factor occupancy with intersubunit FRET); Cy5.5-RF1 in the absence of RRF, with and without RF3; first-bound and rebound RF1 events on the immobilised ribosome (Supplementary Figure S2); temperature not given
[11] = target: 70S ribosome on biotinylated mRNA with the UAA stop codon in the A site (no release factor bound) (E. coli) (UniProt P0AG67); assay: as above
[12] = target: 70S ribosome on biotinylated mRNA with the UAA stop codon in the A site (no release factor bound) (E. coli) (UniProt P0AG67); assay: single-molecule fluorescence in zero-mode waveguides (factor occupancy with intersubunit FRET); Cy5.5-RF1 and Cy5-RF3 with GTP and the antimicrobial peptide Api137 added; occupancy limited by Cy5.5 photobleaching and movie time (6 min)
[13] = target: 70S ribosome with bound Cy5-RF3, rotated post-termination state (E. coli MG1655 K12 | E. coli) (UniProt P0A7I4); assay: single-molecule fluorescence in zero-mode waveguides (factor occupancy with intersubunit FRET); pre-elongated immobilised 70S with the stop codon in the A site; 75 nM Cy5-RF3, 20 nM Cy5.5-RF1, 4 mM GDPCP, polymix buffer, 20°C, no RRF or EF-G
[14] = target: 70S ribosome with bound wild-type (dark) RF3, rotated post-termination state (E. coli MG1655 K12 | E. coli) (UniProt P0A7I4); assay: single-molecule fluorescence in zero-mode waveguides (factor occupancy with intersubunit FRET); as a1 with Cy5.5-RF1 and dark RF3, 4 mM GTP, but at 30°C
[15] = target: 70S ribosome on biotinylated mRNA with the UAA stop codon in the A site (no release factor bound) (E. coli) (UniProt P0AG67); assay: as above
[16] = target: 70S ribosome with bound Cy5-RF3, rotated post-termination state (E. coli MG1655 K12 | E. coli) (UniProt P0A7I4); assay: single-molecule fluorescence in zero-mode waveguides (factor occupancy with intersubunit FRET); ribosome immobilised through biotinylated mRNA; Cy5.5-RF1 and Cy5-RF3 tracked together, 4 mM GTP, Tris-based polymix buffer pH 7.5, 20°C
[17] = target: 70S ribosome with bound Cy5-RF3, rotated post-termination state (E. coli MG1655 K12 | E. coli) (UniProt P0A7I4); assay: single-molecule fluorescence in zero-mode waveguides (factor occupancy with intersubunit FRET); as a4 (MF-UAA mRNA, Cy5.5-RF1, Cy5-RF3, GTP) but at 12°C

koff [1]: 0.0164 s⁻¹
k3off1 (sampling mode, fast phase of a double exponential) [2]: 1.1 s⁻¹
k3off2 (sampling mode, slow phase of a double exponential) [2]: 0.18 s⁻¹
kon [2]: 2e+06 M⁻¹ s⁻¹
koff [3]: 4 s⁻¹
k3off1 (sampling mode, fast phase of a double exponential) [4]: 1.3 s⁻¹
k3off2 (sampling mode, slow phase of a double exponential) [4]: 0.3 s⁻¹
kon [4]: 2.3e+06 M⁻¹ s⁻¹
fold slow-down of dissociation at 12°C against 20°C [5]: 21 fold
k3off1 (sampling mode, fast phase of a double exponential) [6]: 4.6 s⁻¹
k3off2 (sampling mode, slow phase of a double exponential) [6]: 0.25 s⁻¹
kon [6]: 2e+06 M⁻¹ s⁻¹
dissociation rate of the slowest phase of a triple exponential [7]: 0.3 s⁻¹
Substance: Cy5-RF3 (ybbR-tagged RF3 labelled with Cy5-CoA) (from UniProt P0A7I4 1-529) (natural protein)

k1RD+ (single RF1 binding event in the presence of RRF) [8]: 0.87 s⁻¹
koff [8]: 0.76 s⁻¹
kiAR- (spontaneous and simultaneous dissociation and ribosome rotation from the post-termination ribosome) [9]: 0.027 s⁻¹
kon [9]: 2.1e+07 M⁻¹ s⁻¹
mean dwell time on the terminating ribosome in the absence of RF3 (tau 1BD-) [9]: 66 s
k1RD+ (first-bound RF1, no RRF) [10]: 0.77 s⁻¹
k1RD+ (rebound RF1, no RRF) [10]: 1 s⁻¹
kiAR- (first-bound ribosomes, no RRF) [11]: 0.04 s⁻¹
kiAR- (rebound ribosomes, no RRF) [11]: 0.08 s⁻¹
occupancy time with Api137 (photobleaching and movie-time limit) [12]: 300 s
koff [13]: 0.14 s⁻¹
koff [14]: 2.5 s⁻¹
kiAR- (spontaneous and simultaneous dissociation and ribosome rotation from the post-termination ribosome) [15]: 0.072 s⁻¹
koff [16]: 0.69 s⁻¹
fold slow-down of dissociation at 12°C against 20°C [17]: 2.6 fold
Substance: Cy5.5-labeled RF1 (from UniProt P0A7I0 1-360) (natural protein)

koff [8]: 3.5 s⁻¹
kiAR- (spontaneous and simultaneous dissociation and ribosome rotation from the post-termination ribosome) [9]: 0.04 s⁻¹
mean dwell time on the terminating ribosome in the absence of RF3 (tau 2BD-) [9]: 38 s
Substance: Cy5.5-labeled RF2 (from UniProt P07012 1-365) (natural protein)

— article PMC10287982
